# Experiments:
# [1] = target: KIF1AMD-XKidSt (chimera of the KIF1A motor domain with the neck linker and coiled-coil domain of XKid) (not stated | Xenopus); assay: SEC; Superdex 200 Increase 10/300 GL on an NGC system; micromolar protein concentrations; UNC-104(1-653)-sfGFP (or mScarlet for XKidCC-mScarlet) run as size marker
# [2] = target: the molecule itself; assay: as above
Molecule,stoichiometry N [1],stoichiometry N [2]
KIF1AMD-XKidSt (chimera of the KIF1A motor domain with the neck linker and coiled-coil domain of XKid),2,–
"XKid(1-496)-mScarlet (domain or fragment, Xenopus, UniProt Q9I869 1-496, looked up, deletion mutant made by PCR-based mutagenesis; also called XKid(1-497); not shown: mScarlet, C-terminal, kept) MVLTGPLQRESVSMAKRVSMLDQHKKSSCARVRVAVRLRPYMDEKDEAKATTVCVRGLDSQSLEIVNWRNQLETMQYQFDAFYGDSASQREIYMGSVCHILPHLLIGQNASVFAYGPTGAGKTHTMLGNPNQPGVIPRAVRDLLQMSRTAASAPENENWTYTINMSYVEIYQEKVMDLLEPKNKDLPIREDKDHNILIPGVTQKMINSFADFDEHFIPASQNRTVASTKLNDRSSRSHAVLLIKVQKSQQVVPFRQLTGKLYLIDLAGSEDNRRTGNQGIRLKESGAINSSLFTLSKVVDALNQGLPRIPYRDSKLTRLLQDSLGGSAHSVMITNIAPEQTYYFDTLTALNFAAKSKQIINKPFSQETTQTVVQPAMKRPREETGHIAGSQKRKKSKNDSTESSPNSSMDTAGKQKLNLATLDPAVVERLLKLDKILTEKGKKKAQLLSTPKRERMALLKKWEESQMEIERLKEKQKELEQKAMEAEARLEKSNNS",–,2
KIF1A(1-393)LZ (other) MAGASVKVAVRVRPFNSREMSRDSKCIIQMSGSTTTIVNPKQPKETPKSFSFDYSYWSHTSPEDINYASQKQVYRDIGEEMLQHAFEGYNVCIFAYGQTGAGKSYTMMGKQEKDQQGIIPQLCEDLFSRINDTTNDNMSYSVEVSYMEIYCERVRDLLNPKNKGNLRVREHPLLGPYVEDLSKLAVTSYNDIQDLMDSGNKARTVAATNMNETSSRSHAVFNIIFTQKRHDAETNITTEKVSKISLVDLAGSERADSTGAKGTRLKEGANINKSLTTLGKVISALAEMDSGPNKNKKKKKTDFIPYRDSVLTWLLRENLGGNSRTAMVAALSPADINYDETLSTLRYADRAKQIRCNAVINEDPNNKLIRELKDEVTRLRDLLYAQGLGDITDLEDKVEELLSKNYHLENEVARL,–,2
"full-length Xenopus Kid tagged with mScarlet (XKidFL-mScarlet) (natural protein, UniProt Q9I869 1-651, looked up, Kid (Kif22.S), Xenopus, full length; cDNA corresponding to GenBank BC070549.1; also called XKid-mScarlet; Full-length XKid; not shown: mScarlet, C-terminal, kept) MVLTGPLQRESVSMAKRVSMLDQHKKSSCARVRVAVRLRPYMDEKDEAKATTVCVRGLDSQSLEIVNWRNQLETMQYQFDAFYGDSASQREIYMGSVCHILPHLLIGQNASVFAYGPTGAGKTHTMLGNPNQPGVIPRAVRDLLQMSRTAASAPENENWTYTINMSYVEIYQEKVMDLLEPKNKDLPIREDKDHNILIPGVTQKMINSFADFDEHFIPASQNRTVASTKLNDRSSRSHAVLLIKVQKSQQVVPFRQLTGKLYLIDLAGSEDNRRTGNQGIRLKESGAINSSLFTLSKVVDALNQGLPRIPYRDSKLTRLLQDSLGGSAHSVMITNIAPEQTYYFDTLTALNFAAKSKQIINKPFSQETTQTVVQPAMKRPREETGHIAGSQKRKKSKNDSTESSPNSSMDTAGKQKLNLATLDPAVVERLLKLDKILTEKGKKKAQLLSTPKRERMALLKKWEESQMEIERLKEKQKELEQKAMEAEARLEKSNNSDLSDSSVSENTFRAPLRGRNTSTAKVKKVLRVLPMQGNSQLQSTVEEGIPVFEKKKKKKQVTCEGLENQPTWEMNMRTDLLESGKERILKLLNTGSVKELKSLQRIGDKKAKLIIGWREVNGPFKNVEELACLEGISAKQVSSFIKANIMSSIAS",–,2
"full-length human Kid tagged with mNeonGreen (hKidFL-mNeonGreen) (natural protein, UniProt Q14807 1-665, looked up, Kid (KIF22), human, full length; cDNA corresponding to GenBank DQ895829.2; also called hKid-mNeonGreen; hKidFL-mNG; not shown: mNeonGreen, C-terminal, kept) MAAGGSTQQRRREMAAASAAAISGAGRCRLSKIGATRRPPPARVRVAVRLRPFVDGTAGASDPPCVRGMDSCSLEIANWRNHQETLKYQFDAFYGERSTQQDIYAGSVQPILRHLLEGQNASVLAYGPTGAGKTHTMLGSPEQPGVIPRALMDLLQLTREEGAEGRPWALSVTMSYLEIYQEKVLDLLDPASGDLVIREDCRGNILIPGLSQKPISSFADFERHFLPASRNRTVGATRLNQRSSRSHAVLLVKVDQRERLAPFRQREGKLYLIDLAGSEDNRRTGNKGLRLKESGAINTSLFVLGKVVDALNQGLPRVPYRDSKLTRLLQDSLGGSAHSILIANIAPERRFYLDTVSALNFAARSKEVINRPFTNESLQPHALGPVKLSQKELLGPPEAKRARGPEEEEIGSPEPMAAPASASQKLSPLQKLSSMDPAMLERLLSLDRLLASQGSQGAPLLSTPKRERMVLMKTVEEKDLEIERLKTKQKELEAKMLAQKAEEKENHCPTMLRPLSHRTVTGAKPLKKAVVMPLQLIQEQAASPNAEIHILKNKGRKRKLESLDALEPEEKAEDCWELQISPELLAHGRQKILDLLNEGSARDLRSLQRIGPKKAQLIVGWRELHGPFSQVEDLERVEGITGKQMESFLKANILGLAAGQRCGAS",–,2
